From publication PMC10716038, “Talin and kindlin use integrin tail allostery and direct binding to activate integrins” (Nature Structural & Molecular Biology, 2023)
Where “and” joins values, the source holds several entries; their conditions need not be identical. Identical values can stand only once. No end group written: not given here.

Columns and labels:
Conditions in all cases: both partners purified
kindlin-2 (KIND2) [1] = target: T1, kindlin-2 (KIND2) (UniProt Q8CIB5 1-680); assay: MST; apparent; KIND2 titrated to 488–β3-CT in the presence of 120 µM THD1-K402E; MST buffer
T1 construct: kindlin-2 (KIND2), recombinant; with the F1 loop and the PH domain (unlike ΔKIND2); source: E. coli Rosetta, purified (IMAC, SEC); not shown: His10-SUMO, N-terminal, cleaved
T1 sequence (looked up): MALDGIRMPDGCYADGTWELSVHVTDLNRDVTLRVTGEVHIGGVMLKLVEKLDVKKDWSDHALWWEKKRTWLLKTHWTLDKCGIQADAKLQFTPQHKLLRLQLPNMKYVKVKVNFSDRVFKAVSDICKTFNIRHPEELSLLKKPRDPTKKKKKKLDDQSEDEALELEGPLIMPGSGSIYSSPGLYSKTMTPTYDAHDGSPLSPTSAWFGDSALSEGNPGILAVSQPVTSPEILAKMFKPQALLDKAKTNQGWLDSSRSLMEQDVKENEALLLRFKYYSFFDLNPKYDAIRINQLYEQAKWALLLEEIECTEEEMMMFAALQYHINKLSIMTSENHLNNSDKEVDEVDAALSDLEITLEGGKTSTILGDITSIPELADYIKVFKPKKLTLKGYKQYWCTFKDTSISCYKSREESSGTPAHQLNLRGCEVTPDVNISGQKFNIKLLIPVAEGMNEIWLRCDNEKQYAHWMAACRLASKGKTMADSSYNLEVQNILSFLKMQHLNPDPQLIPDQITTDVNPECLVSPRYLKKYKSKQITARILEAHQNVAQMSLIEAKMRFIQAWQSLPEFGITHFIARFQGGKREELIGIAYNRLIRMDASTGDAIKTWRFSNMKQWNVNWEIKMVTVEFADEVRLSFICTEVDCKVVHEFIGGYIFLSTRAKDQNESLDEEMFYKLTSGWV

[2] = target: T2, talin-2 head domain (THD2) (UniProt Q71LX4 1-408); assay: MST; apparent; THD1 titrated to 488–β1-CT or THD2 to 488–β3-CT in the presence of 30 µM KIND2; MST buffer
T2 construct: talin-2 (TLN2) head domain (THD), residues 1-408; source: E. coli (DE3) Rosetta 2, purified (IMAC, SEC); not shown: His10-SUMO, N-terminal, cleaved
T2 sequence (Q71LX4 1-408): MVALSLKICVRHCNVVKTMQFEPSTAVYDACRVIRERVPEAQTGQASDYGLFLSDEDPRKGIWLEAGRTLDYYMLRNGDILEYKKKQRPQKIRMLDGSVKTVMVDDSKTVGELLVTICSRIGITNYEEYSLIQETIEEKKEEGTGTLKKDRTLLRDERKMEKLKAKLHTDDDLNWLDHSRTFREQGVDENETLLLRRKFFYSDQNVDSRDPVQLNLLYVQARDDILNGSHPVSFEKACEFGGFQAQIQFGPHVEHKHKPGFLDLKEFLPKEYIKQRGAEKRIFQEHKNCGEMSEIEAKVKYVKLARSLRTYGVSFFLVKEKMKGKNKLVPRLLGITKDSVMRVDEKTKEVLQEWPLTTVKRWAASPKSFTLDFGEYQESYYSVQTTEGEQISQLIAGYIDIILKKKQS

kindlin-2 (KIND2) [3] = target: T1, kindlin-2 (KIND2); assay: MST; apparent; KIND2 titrated to 488–β3-CT in the presence of 250-450 µM TLN2-F3; MST buffer
THD1 K402A = target: T3, THD1 K402A (UniProt P26039 1-405, K402A); assay: MST; unlabelled protein titrated to 50-200 nM ATTO 488-labelled β-CT peptide, no third protein; 20 mM Tris pH 7.5, 200 mM NaCl, 1 mM TCEP, 0.05% Tween-20; Kd of individual titrations (in S0002 mean and sd, n = 2)
T3 construct: talin-1 (TLN1) head domain, residues 1-405, K402A; source: E. coli (DE3) Rosetta 2, purified (IMAC, SEC); not shown: His10-SUMO, N-terminal, cleaved
T3 sequence (P26039 1-405 K402A): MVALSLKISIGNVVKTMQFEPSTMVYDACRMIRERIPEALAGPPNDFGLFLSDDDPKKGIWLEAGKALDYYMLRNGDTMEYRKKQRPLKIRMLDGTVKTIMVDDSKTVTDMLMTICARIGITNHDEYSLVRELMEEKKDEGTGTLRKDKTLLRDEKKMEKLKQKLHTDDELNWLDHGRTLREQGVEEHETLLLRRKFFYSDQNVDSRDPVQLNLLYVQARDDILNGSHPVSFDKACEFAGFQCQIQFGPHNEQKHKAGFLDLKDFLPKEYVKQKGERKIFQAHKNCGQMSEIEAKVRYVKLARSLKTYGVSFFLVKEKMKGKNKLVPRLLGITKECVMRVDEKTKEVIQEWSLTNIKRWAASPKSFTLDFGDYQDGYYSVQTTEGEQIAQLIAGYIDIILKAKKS

THD1 L400A = target: T4, THD1 L400A (UniProt P26039 1-405, L400A); assay: as above
T4 construct: talin-1 (TLN1) head domain, residues 1-405, L400A; source: E. coli (DE3) Rosetta 2, purified (IMAC, SEC); not shown: His10-SUMO, N-terminal, cleaved
T4 sequence (P26039 1-405 L400A): as the sequence (P26039 1-405 K402A) above, with L400A, A402K counted along it

THD1 K401A = target: T5, THD1 K401A (UniProt P26039 1-405, K401A); assay: as above
T5 construct: talin-1 (TLN1) head domain, residues 1-405, K401A; source: E. coli (DE3) Rosetta 2, purified (IMAC, SEC); not shown: His10-SUMO, N-terminal, cleaved
T5 sequence (P26039 1-405 K401A): as the sequence (P26039 1-405 K402A) above, with K401A, A402K counted along it

THD1 K403E = target: T6, THD1 K403E (UniProt P26039 1-405, K403E); assay: as above
T6 construct: talin-1 (TLN1) head domain, residues 1-405, K403E; source: E. coli (DE3) Rosetta 2, purified (IMAC, SEC); not shown: His10-SUMO, N-terminal, cleaved
T6 sequence (P26039 1-405 K403E): as the sequence (P26039 1-405 K402A) above, with A402K, K403E counted along it

B1: ATTO 488-labeled integrin β3 cytoplasmic tail (488–β3-CT) (peptide, UniProt O54890 741-787, looked up)
peptide: {ATTO 488}-KLLITIHDRKEFAKFEEERARAKWDTANNPLYKEATSTFTNITYRGT
notes: integrin β3 cytoplasmic tail (β3-CT); source: synthetic peptide (MPIB Core Facility)
Q: Which Kd (kindlin-2 (KIND2) [1]) does the source give for B1 here?
A: The Kd was 16.4 µM and 15.8 µM and 16.7 µM.

Q: What about the Kd [2] of the same binder?
A: The Kd was 39.1 µM and 36.2 µM and 54 µM.

Q: And the Kd (kindlin-2 (KIND2) [3])?
A: Its Kd is 55.8 µM and 30.2 µM and 54.2 µM.

Q: And the Kd (THD1 K402A)?
A: Its Kd is 45 µM.

Q: What about the Kd (THD1 L400A) of the same binder?
A: The Kd was 190 µM.

Q: And the Kd (THD1 K401A)?
A: Its Kd is 82.5 µM.

Q: What about the Kd (THD1 K403E) of the same binder?
A: The Kd was 60.9 µM.
